The text below walks through data of US20230220084A1.

First the molecules themselves.
B1: AB0185 (bispecific antibody, part only; not given: Fc, unrelated binder arm, linkers, not shown: another chain or arm of the molecule; a dimerising Fc or GST; small tags and cut ends)
scFv: DIQMTQSPSSLSASVGDRVTITCKASQDIYNYLSWFQQKPGKAPKPLIYRANILVSGVPSRFSGSGSGQDYTFTISSLQPEDIATYYCLQFDAFPFTFGCGTKLEIKGGGGSGGGGSGGGGSGGGGSEVQLVESGGGVVQPGGSLRLSCAASGFTFNSFGMHWVRQAPGKCLEWVAFISSGSTSIYYANTVKGRFTISRDNSKNTLYLQMNSLRAEDTAVYYCARDGYPTGGAMDYWGQGTSVTVSS
B2: AB0186 (bispecific antibody, part only; not given: Fc, unrelated binder arm, linkers, not shown: another chain or arm of the molecule; a dimerising Fc or GST; small tags and cut ends)
scFv: B1 scFv with S158A
B3: AB0189 (bispecific antibody, part only; not given: Fc, unrelated binder arm, linkers, not shown: another chain or arm of the molecule; a dimerising Fc or GST; small tags and cut ends)
scFv: B1 scFv with Q3K, F73L, S158A
B4: AB0010 (bispecific antibody, part only; not given: constant domains, Fc, unrelated scFv, V domains shown, not shown: another chain or arm of the molecule; a dimerising Fc or GST)
VH: QLQLQESGPGLVKPSETLSLTCTVSGFSLTNYGLHWIRQPPGKGLEWIGVIWSGGKTDYNPSLKSRVTISKDTSKNQFSLKLSSVQAADTAVYYCAKYDYDDSLDYWGQGTLVTVSS
VL: DIQMTQSPSSLSASVGDRVTITCHASQNINFWLSWYQQKPGKAPKLLIYEASNLHTGVPSRFSGSGSGTRFTLTISSLQPEDIATYYCQQSHSYPLTFGGGTKLEIK
B5: AB0191 (bispecific antibody, part only; not given: Fc, unrelated binder arm, linkers, not shown: another chain or arm of the molecule; a dimerising Fc or GST; small tags and cut ends)
scFv: EVQLVESGGGVVQPGGSLRLSCAASGFTFNSFGMHWVRQAPGKCLEWVAFISSGSTSIYYANTVKGRFTISRDNSKNTLYLQMNSLRAEDTAVYYCARDGYPTGGAMDYWGQGTSVTVSSGGGGSGGGGSGGGGSGGGGSDIQMTQSPSSLSASVGDRVTITCKASQDIYNYLSWFQQKPGKAPKPLIYRANILVSGVPSRFSGSGSGQDYTFTISSLQPEDIATYYCLQFDAFPFTFGCGTKLEIK
B6: AB0192 (bispecific antibody, part only; not given: Fc, unrelated binder arm, linkers, not shown: another chain or arm of the molecule; a dimerising Fc or GST; small tags and cut ends)
scFv: B5 scFv with S31A
B7: AB0195 (bispecific antibody, part only; not given: Fc and unrelated binding arm, not shown: another chain or arm of the molecule; a dimerising Fc or GST)
scFv: B5 scFv with S31A, Q143K, F213L
B8: Murine F3′-9F11 (bispecific antibody, part only; not given: format, linker, Fc, other arm, V domains shown, not shown: a dimerising Fc or GST)
VH: EVQLQESGGGLVQPGGSRKLSCAASGFTFNSFGMHWVRQAPEKGLEWVAFISSGSTSIYYANTVKGRFTISRDNPKNTLFLQMTSLRSEDTAMYYCARDGYPTGGAMDYWGQGTSVTVSS
VL: DIKMTQSPSSMYASLGERVTITCKASQDIYNYLSWFQLKPGKSPRPLIYRANILVSGVPSKFSGSGSGQDYSLTINSLEYEDLGIYYCLQFDAFPFTFGSGTKLEIK
B9: 16B08 hybridoma supernatant antibody (antibody, from a related filing, V domains shown)
VH: EVQLQESGPGLVQPSQSLSITCTVSGFSLTNYGLHWVRQSPGKGLEWLGVIWSGGKTDYNTPFKSRLSISKDISKNQVFFKMNSLQPNDTAIYFCAKYDYDDSLDYWGQGTSVTVSS
VL: B4 VL with T5N, V15L, R18T, V19I, T20A, K42N, A43I, G100Q
B10: 15A10 hybridoma supernatant antibody (antibody, from a related filing, V domains shown)
VH: EVQLQESGAELVRSGASIKLSCAASAFNIKDYFIHWVRQRPDQGLEWIGWIDPENDDTEYAPKFQDKATMTADTSSNTAYLQLSSLTSADTAVYYCNALWSRGGYFDYWGQGTTLTVSS
VL: EVLLTQSPAIIAASPGEKVTITCSARSSVSYMSWYQQKPGSSPKIWIYGISKLASGVPARFSGSGSGTYFSFTINNLEAEDVATYYCQQRSYYPFTFGSGTKLEIK
B11: F3′-1304 (bispecific antibody, part only; not given: Fc and unrelated binding arm, not shown: another chain or arm of the molecule; a dimerising Fc or GST; small tags and cut ends)
scFv: DIQMTQSPSSLSASVGDRVTITCHASQNINFWLSWYQQKPGKIPKLLIYEASNLHTGVPSRFSGSGSGTRFTLTISSLQPEDIATYYCQQSHSYPLTFGCGTKLEIKGGGGSGGGGSGGGGSGGGGSQLQLQESGPGLVKPSETLSLTCTVSGFSLTNYGLHWIRQPPGKCLEWIGVIWSGGKTDYNPSLKSRVTISKDTSKNQFSLKLSSVQAADTAVYYCAKYDYDDSLDYWGQGTLVTVSS
B12: AB0188 (bispecific antibody, part only; not given: Fc, unrelated binder arm, linkers, not shown: another chain or arm of the molecule; a dimerising Fc or GST; small tags and cut ends)
scFv: B1 scFv with Q3K, F73L
B13: F3′-1306 (bispecific antibody, part only; not given: Fc and unrelated binding arm, not shown: another chain or arm of the molecule; a dimerising Fc or GST; small tags and cut ends)
scFv: B11 scFv with I43A, A215N
B14: F3′-1292 (bispecific antibody, part only; not given: Fc and unrelated binding arm, not shown: another chain or arm of the molecule; a dimerising Fc or GST)
scFv: QLQLQESGPGLVKPSETLSLTCTVSGFSLTNYGLHWIRQPPGKCLEWIGVIWSGGKTDYNPSLKSRVTISKDTSKNQFSLKLSSVQANDTAVYYCAKYDYDDSLDYWGQGTLVTVSSGGGGSGGGGSGGGGSGGGGSDIQMTQSPSSLSASVGDRVTITCHASQNINFWLSWYQQKPGKIPKLLIYEASNLHTGVPSRFSGSGSGTRFTLTISSLQPEDIATYYCQQSHSYPLTFGCGTKLEIK
B15: F3′-1296 (bispecific antibody, part only; not given: Fc and unrelated binding arm, not shown: another chain or arm of the molecule; a dimerising Fc or GST)
scFv: B14 scFv with K97R
B16: F3′-1297 (bispecific antibody, part only; not given: Fc and unrelated binding arm, not shown: another chain or arm of the molecule; a dimerising Fc or GST; small tags and cut ends)
scFv: B14 scFv with I180A

Changes are numbered by the printed parent chain.

hCLEC12A-His fusion protein (human), sequence (Q5QGZ9 65-265 limits assumed): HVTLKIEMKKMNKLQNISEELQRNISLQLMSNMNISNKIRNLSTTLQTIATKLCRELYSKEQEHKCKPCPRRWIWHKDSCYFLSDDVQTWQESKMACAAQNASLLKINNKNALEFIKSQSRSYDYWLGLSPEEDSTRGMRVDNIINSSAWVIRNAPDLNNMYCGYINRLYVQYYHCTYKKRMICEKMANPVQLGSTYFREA
De-sialylated hCLEC12A (human), sequence (Q5QGZ9 65-265 limits assumed): as above
cynomolgus CLEC12A expressed on RMA cells (cynomolgus monkey), sequence (chain, as listed by the source): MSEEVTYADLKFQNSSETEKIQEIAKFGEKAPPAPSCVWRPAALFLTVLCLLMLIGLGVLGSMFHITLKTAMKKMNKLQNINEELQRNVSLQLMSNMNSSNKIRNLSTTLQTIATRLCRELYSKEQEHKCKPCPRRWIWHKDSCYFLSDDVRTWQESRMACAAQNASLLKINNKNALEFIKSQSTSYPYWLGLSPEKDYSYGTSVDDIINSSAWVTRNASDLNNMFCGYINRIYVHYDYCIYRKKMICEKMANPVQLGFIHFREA

For one assay, the target named is human CLEC12A expressed on cells (human) (UniProt Q5QGZ9). The assay can be described thus: flow cytometry, hCLEC12A+Ba/F3 cells. In general terms: Flow cytometry measures light scatter and fluorescence of single cells or particles in a stream.
human CLEC12A expressed on cells (human), sequence (Q5QGZ9 whole entry): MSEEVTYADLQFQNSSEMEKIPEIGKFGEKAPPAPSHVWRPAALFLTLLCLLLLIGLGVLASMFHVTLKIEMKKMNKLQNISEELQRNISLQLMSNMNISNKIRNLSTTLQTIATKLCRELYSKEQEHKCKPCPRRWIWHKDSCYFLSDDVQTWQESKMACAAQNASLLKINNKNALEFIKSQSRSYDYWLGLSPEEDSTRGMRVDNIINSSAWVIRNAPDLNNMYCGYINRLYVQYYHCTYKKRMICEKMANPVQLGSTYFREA
Broadly, the EC50 is the concentration needed to bring the measured effect to its halfway point. Low readings indicate a more potent agent, high ones a less potent agent. The molecule B1 had an EC50 of 0.7 nM and a Max binding MFI of 8020 MFI.
For B2 the same measures were 0.7 nM and 8160 MFI.
B3 yielded an EC50 of 1.3 nM and a Max binding MFI of 8760 MFI.
As for B4, the EC50 was determined as 6.13 nM and the Max MFI was determined as 54800 MFI.
For the molecule B5, the EC50 is 0.6 nM and the Max binding MFI is 7940 MFI.
Turning to B6, the EC50 stood at 0.7 nM and the Max binding MFI was 10200 MFI.
For B7 the same measures were 0.6 nM and 10800 MFI.

A further assay concerns the target De-sialylated hCLEC12A (human) (UniProt Q5QGZ9). In words: SPR, analyte de-sialylated hCLEC12A.
In general, Kd refers to the constant that tells how readily two partners part at equilibrium. A low value points to a tighter complex. The term koff denotes a measure of how fast the partners let go of each other. Low values mean slow dissociation, high ones fast dissociation. The kon is a measure of how fast the partners come together. Read a high kon as fast association. In turn, B8 gave a Kd of 0.62 nM, a koff of 0.00098 s⁻¹ and a kon of 1.58e+06 M⁻¹ s⁻¹.

The target of a further assay is human CLEC12A expressed on cells (human) (UniProt Q5QGZ9). The assay can be described thus: flow cytometry, U937 cells.
B9: the Cell Binding MFI is 44.1 MFI.
Molecule B10 registered a Cell Binding MFI of 83.8 MFI.

The next assay has as its target cynomolgus CLEC12A expressed on RMA cells (cynomolgus monkey). In words: flow cytometry, RMA-cCLEC12A cells.
Regarding B9, the Cell Binding MFI came to 1130 MFI.
Same read-out and setting: then B10, with 167 MFI.

A further assay deals with human CLEC12A expressed on cells (human) (UniProt Q5QGZ9). In words: flow cytometry on RMA-hCLEC12A cells.
As a reminder, the EC50 (read off the curve) is the midpoint of the concentration-response curve. B11 displayed an EC50 (read off the curve) of 10 nM.

Another assay has as its target hCLEC12A-His fusion protein (human) (UniProt Q5QGZ9). The assay can be described thus: SPR 37 C, hybridoma supernatant.
Take B10: the Kd came out at 15.8 nM and the koff came to 0.00223 s⁻¹.

The target in the next assay is De-glycosylated hCLEC12A (human) (UniProt Q5QGZ9). In words: SPR, analyte de-glycosylated hCLEC12A. (SPR reads the build-up and loss of mass on a sensor chip optically.)
De-glycosylated hCLEC12A (human), sequence (Q5QGZ9 65-265 limits assumed): as the sequence (Q5QGZ9 65-265 limits assumed) above
In turn, B8 yielded a Kd of 0.34 nM, a koff of 0.000374 s⁻¹ and a kon of 1.11e+06 M⁻¹ s⁻¹.

Another assay concerns the target human CLEC12A expressed on cells (human) (UniProt Q5QGZ9). The assay can be described thus: flow cytometry, RMA-hCLEC12A cells.
The molecule B9 yielded a Cell Binding MFI of 819 MFI.
As to B10, the Cell Binding MFI came to 372 MFI.

A further assay shares this target. In words: flow cytometry, HL60 cells.
B1 gave an EC50 of 0.4 nM and a Max binding MFI of 372 MFI.
The molecule B2 returned an EC50 of 0.5 nM and a Max binding MFI of 412 MFI.
For B3 the same measures were 0.7 nM and 420 MFI.
B4 returned an EC50 of 4.2 nM and a Max MFI of 6060 MFI.
Molecule B5 showed an EC50 of 0.6 nM and a Max binding MFI of 420 MFI.
For B6 the same measures were 0.6 nM and 503 MFI.
For B7 the same measures were 0.7 nM and 551 MFI.

A further assay concerns the target hCLEC12A-His fusion protein (human) (UniProt Q5QGZ9). In words: SPR screening, semi-purified protein.
Turning to B1, the equilibrium dissociation constant (Kd) was determined as 1.4 nM, the koff worked out at 0.00101 s⁻¹ and the kon was determined as 726000 M⁻¹ s⁻¹.
For B12 the same measures were 1.58 nM, 0.000901 s⁻¹ and 569000 M⁻¹ s⁻¹.
In turn, B2 registered a Kd of 1.04 nM, an off-rate (koff) of 0.00117 s⁻¹ and a kon of 1.12e+06 M⁻¹ s⁻¹.
For B3 the same measures were 1.21 nM, 0.00127 s⁻¹ and 1.04e+06 M⁻¹ s⁻¹.
For B11 the same measures were 2.7 nM, 0.0013 s⁻¹ and 480000 M⁻¹ s⁻¹.
As to B13, the Kd was determined as 5.16 nM, the koff worked out at 0.0489 s⁻¹ and the kon is 9.48e+06 M⁻¹ s⁻¹.
For B5 the same measures were 1.73 nM, 0.00126 s⁻¹ and 728000 M⁻¹ s⁻¹.
For B6 the same measures were 1.26 nM, 0.00138 s⁻¹ and 1.09e+06 M⁻¹ s⁻¹.
Molecule B7 returned a Kd of 1.68 nM, a koff of 0.00129 s⁻¹ and a kon of 766000 M⁻¹ s⁻¹.
For B14, the Kd came out at 3.22 nM, the koff was found to be 0.0013 s⁻¹ and the kon worked out at 402000 M⁻¹ s⁻¹.
For B15 the same measures were 1.34 nM, 0.00117 s⁻¹ and 874000 M⁻¹ s⁻¹.
For B16 the same measures were 2.79 nM, 0.00141 s⁻¹ and 504000 M⁻¹ s⁻¹.

For another assay the target is unchanged. In words: SPR, analyte glycosylated hCLEC12A.
B8 had a Kd of 0.96 nM, a koff of 0.00111 s⁻¹ and a kon of 1.15e+06 M⁻¹ s⁻¹.
